The source of these data is patent US20230031280A1, “GLP-2 FUSION POLYPEPTIDES AND USES FOR TREATING AND PREVENTING GASTROINTESTINAL CONDITIONS” (SHIRE-NPS PHARMACEUTICALS, INC., priority 2017, published 2023).

A short description of series [1]: NanoDSF melting temperature / thermal stability. In kind it is physicochemical. As to the method:
Each of the GLP-2 peptibodies was tested by determining melting temperature with nanodifferential scanning fluorimetry (NanoDSF). NanoDSF is a measurement of protein stability over a range of temperatures, with a temperature ramp employed. The stability of tryptophan is measured by fluorescence, as reflected in a ratio of fluorescence at 350 nm to fluorescence at 330 nm. From the assay, one or more melting temperatures are determined. Because a protein in a certain state is understood to have a melting temperature, the number of melting temperatures observed reflects the number of different states.
(§1) Stability analysis was then performed using SEC-MALS and NanoDSF. For SEC-MALS, a Sepax Zenix C-150 column was used. The mobile phase buffer was 1× PBS with a final concentration of 400 mM NaCl. The flow rate was 0.8 mL per minute. 20 micrograms of total protein was injected. For NanoDSF, 10 microliters of sample was used, without normalization of the samples.
as §1

The target of series [2] is T1, hFcRn (extracellular domain of the FcRN) (Homo sapiens, UniProt P55899).
T1 construct: made in house
As to the kind of experiment: FcRn binding by surface plasmon resonance (Biacore). The text has this:
Binding to the Fc neonatal receptor (FcRN) allows for recycling of the molecules and leads to an extended in vivo serum half-life of the Fc fusion proteins. Recycling occurs as the molecules are passively taken into the cells and the pH of the endosomes is lower. That leads to binding of the Fc portion of the molecule to the FcRN. When the FcRN recycles back to the surface of the cell, the pH is then neutral and the protein is released back into the serum.
Binding to the extracellular domain of the FcRN was measured by surface plasmon resonance (SPR) using a Biacore system. Direct immobilization with FcRn was achieved via amine coupling of a CM5 chip with FcRn under the following conditions: • i) hFcRn (expressed and purified in house) is diluted in Acetate buffer pH 5.0 to 5 μg/mL. • ii) Immobilize 5 μg/mL of FcRn with target of 500 RU on CM5 chip in PBS pH 7.0 • iii) Final response 454 RU • iv) Running buffer: PBS-P+, pHed to 5.5
The kinetic binding study was done using the following protocol. Samples were diluted in PBS-P+ to 50, 25, 12.5, 6.25, 3.125, 1.56, 0.78, 0.39, 0 nM. The parameters were set as follows: • i) Association and Dissociation 300 s at Flow rate 30 μL/min • ii) Regeneration with 25 mM Tris, 150 mM NaCl pH 8.0 40 s at 60 μL/min
A measurement of the binding of the GLP-2 peptibodies to the Fc neonatal receptor (FcRN) was undertaken at pH 5.5 and pH 7.4.

A further series addresses T2, human GLP-2R (Homo sapiens, UniProt O95838).
T2 construct: host or cells: CHO-K1
T2 sequence (O95838 1-553): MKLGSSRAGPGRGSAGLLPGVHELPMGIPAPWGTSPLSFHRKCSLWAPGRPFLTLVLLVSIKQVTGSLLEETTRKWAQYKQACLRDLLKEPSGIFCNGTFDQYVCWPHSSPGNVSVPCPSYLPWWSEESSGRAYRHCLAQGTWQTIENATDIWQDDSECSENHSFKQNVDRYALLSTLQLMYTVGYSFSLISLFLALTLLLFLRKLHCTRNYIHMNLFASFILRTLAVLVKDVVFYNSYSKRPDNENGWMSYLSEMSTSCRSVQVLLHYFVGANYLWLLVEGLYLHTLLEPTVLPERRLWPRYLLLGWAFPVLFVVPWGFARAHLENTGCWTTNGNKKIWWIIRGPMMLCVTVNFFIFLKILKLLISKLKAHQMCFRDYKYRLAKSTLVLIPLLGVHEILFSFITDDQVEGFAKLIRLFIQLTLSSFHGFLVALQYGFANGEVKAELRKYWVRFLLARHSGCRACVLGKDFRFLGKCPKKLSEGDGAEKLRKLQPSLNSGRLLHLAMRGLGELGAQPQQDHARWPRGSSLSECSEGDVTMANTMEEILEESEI
As to the kind of experiment: cAMP Hunter eXpress GLP2R CHO-K1 GPCR assay. In kind it is cell-based. On the procedure: The cAMP Hunter™ assay is based on enzyme fragment complementation (EFC). In EFC assay, the enzyme donor is fused to cAMP. Increased intracellular cAMP due to GLP2R activation competes with ED-cAMP for antibody. Unbound ED-cAMP complements the enzyme acceptor to form active beta galactosidase, which subsequently produces a luminescent signal.
The CHO-K1 cell line used is overexpressing human GLP-2R (Genbank accession number NM004246.1). […] Their activities were assayed via measurement of the concentration of cAMP in the media.

Series [3] in a line: Projection of intravenous and subcutaneous PK parameters for humans. Details: species or system human. As to the method:
While a dose of 30 μg/kg once weekly (QW) is projected from the cynomolgus monkey PK data, the dose should be ten times higher (300 μg/kg) to adjust for the difference in in vivo potency.

T1 sequence (P55899 24-297 limits assumed): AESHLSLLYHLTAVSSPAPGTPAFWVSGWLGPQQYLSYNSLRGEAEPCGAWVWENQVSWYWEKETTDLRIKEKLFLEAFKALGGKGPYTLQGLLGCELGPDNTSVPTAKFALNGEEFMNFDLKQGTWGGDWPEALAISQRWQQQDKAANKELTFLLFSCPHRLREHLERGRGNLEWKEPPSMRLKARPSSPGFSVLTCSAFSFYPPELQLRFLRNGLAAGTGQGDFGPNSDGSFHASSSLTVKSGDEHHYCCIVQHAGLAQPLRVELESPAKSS
T1 sequence (P61769 21-119 partner): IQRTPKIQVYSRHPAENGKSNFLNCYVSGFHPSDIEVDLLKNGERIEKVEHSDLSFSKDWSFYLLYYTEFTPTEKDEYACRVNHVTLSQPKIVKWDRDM

As a reminder, the Kd is the free concentration of one partner at which half of the binding sites on the other are occupied at equilibrium, for simple one-to-one binding. As for “GLP-2 peptibody K: GLP-2[A2G]-GGGGSGGGGSGGGGS linker-IgG1 Fc (LALA) with C-terminal lysine; SEQ ID NO: 10”, the “NanoDSF melting temperature 1” value in series [1] (first transition) was 1 = 67.5 °C. The “NanoDSF melting temperature 2” value in series [1] (second transition) was 2 = 79.7 °C. In series [2] (pH 5.5), this substance returned a dissociation constant (Kd) of 1.95 nM. Besides, the “FcRN KD at pH 7.4” value in series [2] (pH 7.4) was “No binding in range tested”. Besides, the “reduction of activity vs GLP-2[A2G]” value with human GLP-2R is reported as “about five-fold”. In series [3], this substance came in with a Vc of 0.0385 L/kg, a Vt of 0.0361 L/kg and a ka of 1.40 day⁻¹. For the same substance, in series [3] (exponent on CL 0.85, monkey 3.5 kg, human 70 kg), the “CL (value in parentheses)” value came out at 0.642 mL/h/kg. Moreover, in series [3] (first value of cell), the CL is 1.01 mL/h/kg, the F was found to be 86% and the Q was found to be 2.35 mL/h/kg. In addition, in series [3] (value in parentheses), the “F (value in parentheses)” value came to 60% and the “Q (value in parentheses)” value came to 1.5 mL/h/kg.
